According to patent US20250002593A1 (INMAGENE PTE, published 2025):

Tests used:
[1] = target: T1, Recombinant hIL-36R protein (Acrobio, Cat #IL2-H52H6) (human, UniProt Q9HB29 20-335); assay: BLI (Gator)
T1 construct: Bought soluble protein; also called recombinant human IL-36R protein
T1 sequence: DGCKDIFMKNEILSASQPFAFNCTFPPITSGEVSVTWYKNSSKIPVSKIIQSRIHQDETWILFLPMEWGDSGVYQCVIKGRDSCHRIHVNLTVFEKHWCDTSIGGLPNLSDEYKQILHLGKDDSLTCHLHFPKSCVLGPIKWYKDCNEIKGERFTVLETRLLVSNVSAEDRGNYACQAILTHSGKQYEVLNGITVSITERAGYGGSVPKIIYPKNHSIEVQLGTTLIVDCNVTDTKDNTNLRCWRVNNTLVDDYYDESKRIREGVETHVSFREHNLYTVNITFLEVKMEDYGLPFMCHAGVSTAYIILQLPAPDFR

[2] = target: T2, Recombinant hIL1R1 protein (human, UniProt P14778 18-332, limits assumed); assay: ELISA on coated hIL1R1
T2 sequence (looked up): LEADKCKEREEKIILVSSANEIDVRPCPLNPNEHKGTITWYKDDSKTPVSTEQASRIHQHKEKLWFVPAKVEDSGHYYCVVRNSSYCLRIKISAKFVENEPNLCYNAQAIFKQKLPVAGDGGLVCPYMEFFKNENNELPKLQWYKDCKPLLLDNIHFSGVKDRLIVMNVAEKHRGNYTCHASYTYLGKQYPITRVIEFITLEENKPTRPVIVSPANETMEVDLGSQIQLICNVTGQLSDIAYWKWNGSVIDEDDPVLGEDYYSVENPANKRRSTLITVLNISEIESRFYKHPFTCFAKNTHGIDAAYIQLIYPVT

membrane hIL-36R [3] = target: T3, membrane hIL-36R (human, UniProt Q9HB29 20-575); assay: cell-based or functional assay
T3 sequence: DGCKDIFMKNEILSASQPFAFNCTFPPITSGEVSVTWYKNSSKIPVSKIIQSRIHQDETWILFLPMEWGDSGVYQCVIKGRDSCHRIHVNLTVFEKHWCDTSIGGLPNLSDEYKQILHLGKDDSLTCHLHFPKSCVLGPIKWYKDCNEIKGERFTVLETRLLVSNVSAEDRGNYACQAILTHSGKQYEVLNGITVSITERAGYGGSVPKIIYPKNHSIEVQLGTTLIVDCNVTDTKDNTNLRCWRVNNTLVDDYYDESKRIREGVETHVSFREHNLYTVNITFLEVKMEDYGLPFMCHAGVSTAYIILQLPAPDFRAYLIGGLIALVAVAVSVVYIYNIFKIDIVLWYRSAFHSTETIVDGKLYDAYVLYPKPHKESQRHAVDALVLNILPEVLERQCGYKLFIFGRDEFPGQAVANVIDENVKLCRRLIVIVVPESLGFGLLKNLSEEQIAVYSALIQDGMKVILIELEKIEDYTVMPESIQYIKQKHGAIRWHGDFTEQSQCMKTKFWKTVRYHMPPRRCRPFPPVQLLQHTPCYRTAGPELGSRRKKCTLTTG

membrane hIL-36R [4] = target: T3, membrane hIL-36R; assay: cell-based or functional assay; remark: listed apart in the source
recombinant hIL-36R-his = target: T4, recombinant hIL-36R-his (human, UniProt Q9HB29 20-337); assay: ELISA on coated recombinant hIL-36R-his, HRP anti-hIgG
T4 construct: Residues 1-337 (extracellular domain) are stated for the IL-36R-his used as immunogen; The range includes the signal peptide; no cleavage site is stated; also called recombinant hIL36R protein; recombinant human IL-36R-his protein; not shown: His tag
T4 sequence: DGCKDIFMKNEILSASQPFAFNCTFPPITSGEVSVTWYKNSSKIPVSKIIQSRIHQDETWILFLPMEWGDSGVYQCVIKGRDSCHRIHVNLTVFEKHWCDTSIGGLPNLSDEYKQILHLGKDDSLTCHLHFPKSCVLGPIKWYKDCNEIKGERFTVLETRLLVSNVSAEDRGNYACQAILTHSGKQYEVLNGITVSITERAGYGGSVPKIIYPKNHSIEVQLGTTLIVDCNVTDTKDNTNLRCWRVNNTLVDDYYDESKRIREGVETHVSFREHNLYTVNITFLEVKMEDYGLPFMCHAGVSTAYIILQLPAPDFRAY

membrane mouse IL-36R = target: T5, membrane mouse IL-36R (mouse, UniProt Q9ERS7 22-574); assay: flow cytometry on HEK293 cells transfected with mouse IL-36R
T5 construct: whole, on cells; also called mouse IL-36R on HEK293 cells transfected with pcDNA3.1-musIL36R
T5 sequence (looked up): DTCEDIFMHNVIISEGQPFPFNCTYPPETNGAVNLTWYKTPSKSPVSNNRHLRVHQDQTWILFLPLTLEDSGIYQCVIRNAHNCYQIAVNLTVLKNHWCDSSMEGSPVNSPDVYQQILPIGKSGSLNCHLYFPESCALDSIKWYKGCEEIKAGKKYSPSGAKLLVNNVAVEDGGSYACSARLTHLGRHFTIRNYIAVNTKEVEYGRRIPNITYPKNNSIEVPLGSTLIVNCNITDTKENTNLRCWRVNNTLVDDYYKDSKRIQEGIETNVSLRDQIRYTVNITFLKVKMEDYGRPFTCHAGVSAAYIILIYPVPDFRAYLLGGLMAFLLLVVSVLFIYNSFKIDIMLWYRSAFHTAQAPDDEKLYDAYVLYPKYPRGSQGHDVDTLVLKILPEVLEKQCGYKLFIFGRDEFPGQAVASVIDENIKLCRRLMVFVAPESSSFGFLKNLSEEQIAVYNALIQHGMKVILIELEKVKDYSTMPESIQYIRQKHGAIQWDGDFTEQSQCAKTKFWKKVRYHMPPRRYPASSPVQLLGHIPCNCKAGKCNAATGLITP

[5] = target: T1, Recombinant hIL-36R protein (Acrobio, …); assay: SPR (Biacore T200, 25 C), antibody captured by Fc, hIL-36R analyte
membrane hIL-36R [6] = target: T3, membrane hIL-36R; assay: flow cytometry on HEK293 cells transfected with hIL-36R, FITC anti-hIgG
[7] = target: T6, recombinant hFcRn-his/B2M heterodimer protein (Acrobio, Cat #FCM-H82W4) (human, UniProt P55899 24-297; P61769 21-119); assay: BLI (Gator) at pH 6.0, hFcRn-his/B2M on anti-his sensor, antibody analyte
T6 construct: Bought heterodimer
T6 sequence (P55899 24-297 limits assumed, chain 1 of 2): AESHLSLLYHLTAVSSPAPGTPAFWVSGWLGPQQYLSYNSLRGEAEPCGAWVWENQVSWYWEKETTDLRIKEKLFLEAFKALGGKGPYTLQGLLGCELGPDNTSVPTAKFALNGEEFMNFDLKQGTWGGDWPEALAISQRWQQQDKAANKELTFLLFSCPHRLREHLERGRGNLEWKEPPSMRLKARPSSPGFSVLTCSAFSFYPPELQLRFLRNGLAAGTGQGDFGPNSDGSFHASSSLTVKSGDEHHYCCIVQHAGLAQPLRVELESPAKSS
T6 sequence (P61769 21-119 limits assumed, chain 2 of 2): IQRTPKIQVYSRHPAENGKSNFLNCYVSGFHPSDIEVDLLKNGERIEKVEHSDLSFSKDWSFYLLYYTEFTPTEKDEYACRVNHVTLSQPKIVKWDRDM

B1: 5F7-2a8 (antibody, human IgG4 S228P, kappa)
heavy: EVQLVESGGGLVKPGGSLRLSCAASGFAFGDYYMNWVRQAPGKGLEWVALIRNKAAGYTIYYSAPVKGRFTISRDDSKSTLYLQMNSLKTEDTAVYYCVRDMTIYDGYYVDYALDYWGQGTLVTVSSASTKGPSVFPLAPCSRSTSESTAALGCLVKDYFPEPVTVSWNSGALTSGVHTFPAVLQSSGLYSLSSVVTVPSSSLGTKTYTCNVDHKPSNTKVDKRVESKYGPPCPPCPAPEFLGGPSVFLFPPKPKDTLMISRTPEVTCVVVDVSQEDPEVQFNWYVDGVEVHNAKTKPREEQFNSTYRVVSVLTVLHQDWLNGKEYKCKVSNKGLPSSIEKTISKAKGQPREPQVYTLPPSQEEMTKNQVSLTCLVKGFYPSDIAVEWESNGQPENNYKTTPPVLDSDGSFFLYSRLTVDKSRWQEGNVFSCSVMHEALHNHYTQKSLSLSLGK
light: DIVMTQSPSSVSASVGDRVTITCRASRNINIWLSWYQQKPGKAPKLFIYKASNLHTGVPSRFSGSGSGTDFTLTISSLQPEDFATYYCLQSQSYPLTFGQGTKLEIKRTVAAPSVFIFPPSDEQLKSGTASVVCLLNNFYPREAKVQWKVDNALQSGNSQESVTEQDSKDSTYSLSSTLTLSKADYEKHKVYACEVTHQGLSSPVTKSFNRGEC
notes: also called 5F7-2a8-WT; 5F7-WT
Kd [1]: < 0.1 nM
kon [1]: 47100 M⁻¹ s⁻¹
binding result [2]: no binding
IC50, IL-36α induced IL-6 release in HEK cells (membrane hIL-36R [3]): 0.11 µg/mL
IC50, IL-36α induced IL-8 release in A431 cells (membrane hIL-36R [3]): 0.195 µg/mL
IC50, IL-36α induced IL-8 release in HDF cells (membrane hIL-36R [3]): 0.00696 µg/mL
IC50, IL-36α induced IL-8 release in HEK cells (membrane hIL-36R [3]): 0.129 µg/mL
IC50, IL-36α induced TNF-a release in HEK cells (membrane hIL-36R [3]): 0.0535 µg/mL
IC50, IL-36β induced IL-6 release in HEK cells (membrane hIL-36R [3]): 0.0188 µg/mL
IC50, IL-36β induced IL-8 release in A431 cells (membrane hIL-36R [3]): 0.111 µg/mL
IC50, IL-36β induced IL-8 release in HEK cells (membrane hIL-36R [3]): 0.0481 µg/mL
IC50, IL-36β induced TNF-a release in HEK cells (membrane hIL-36R [3]): 0.0235 µg/mL
IC50, IL-36γ induced IL-6 release in HEK cells (membrane hIL-36R [3]): 0.0446 µg/mL
IC50, IL-36γ induced IL-8 release in A431 cells (membrane hIL-36R [3]): 0.00877 µg/mL
IC50, IL-36γ induced IL-8 release in HEK cells (membrane hIL-36R [3]): 0.0326 µg/mL
IC50, IL-36γ induced TNF-a release in HEK cells (membrane hIL-36R [3]): 0.00526 µg/mL
IC50, IL-36R reporter assay: inhibition of ligand induced luminescence in Jurkat-IL36R-IL1Racp-NFkB-luc cells (membrane hIL-36R [4]): 0.0237 µg/mL
EC50 (recombinant hIL-36R-his): 0.00947 µg/mL
binding result (membrane mouse IL-36R): no binding
Kd [5]: 1.52 nM
koff [5]: 4.48e-05 s⁻¹
kon [5]: 29500 M⁻¹ s⁻¹
EC50 (membrane hIL-36R [6]): 0.146 µg/mL
Kd [7]: 168 nM
koff [7]: 0.0507 s⁻¹
kon [7]: 301000 M⁻¹ s⁻¹
